The values below come from the Immune Epitope Database (IEDB).

The target in assay [1] is HLA-A*02:02. The experiment in a line: IEDB peptide-MHC binding, purified MHC/competitive/radioactivity; ≥ and ≤ were set here for values at or beyond the usual limits of such assays. The conditions noted are these: source organism: Human immunodeficiency virus type 1 (isolate YU2).
The target in assay [2] is HLA-A*02:03. The description is as above.
Assay [3] deals with HLA-A*02:06. The assay is described as above.
The target in assay [4] is HLA-A*68:02. The description is as above. The conditions noted are these: source organism: Human immunodeficiency virus type 1 (isolate YU2).
In assay [5] the target is HLA-A*02:06. The assay is described as follows: IEDB peptide-MHC binding, purified MHC/competitive/radioactivity; filed as Kd, often an IC50 or EC50 that approximates it; ≥ and ≤ were set here for values at or beyond the usual limits of such assays. The conditions noted are these: source organism: Human immunodeficiency virus type 1 (isolate YU2).
Assay [6] concerns the target HLA-A*02:02. The description is as above.
Assay [7] has as its target HLA-A*68:02. The description is as above.
The target in assay [8] is HLA-A*02:03. The assay is described as above. The conditions noted are these: source organism: Human immunodeficiency virus type 1 (isolate YU2).
The mark [9] stands for this setting: source organism: Human immunodeficiency virus type 1 (isolate YU2).
Where [10] appears, read: source organism: Human immunodeficiency virus 1.

As to AIIRILQQL, the IC50 (usually the concentration needed to halve the response being measured) in the assay with HLA-A*02:02 [1] was found to be 22.6 nM; with HLA-A*02:03 [2] (setting [9]) it was 41.7 nM; with HLA-A*02:06 [3] (setting [9]), 38.5 nM; with HLA-A*68:02 [4] it was 548 nM.

On to ILKEPVHGV, for which, in the assay with HLA-A*02:06 [5], the Kd (as a rule, the free concentration of one partner at which half of the binding sites on the other are occupied at equilibrium, for simple one-to-one binding) was at least 37000 nM.

Turning to KAACWWAGI, the figures for the half-maximal inhibitory concentration (IC50) with HLA-A*02:03 [2] (setting [9]) and with HLA-A*02:06 [3] (setting [9]) were 83.3 nM and 161 nM, respectively. In the assay with HLA-A*02:02 [6] (setting [9]), the Kd came out at 1080 nM.

KMIGGIGGFI: the values for the IC50 with HLA-A*02:02 [1], with HLA-A*02:03 [2] (setting [9]) and with HLA-A*02:06 [3] (setting [9]) were 54.4 nM, 4.8 nM and 771 nM, respectively. Besides, the Kd with HLA-A*68:02 [7] (setting [9]) was determined as 3330 nM.

Turning to LLQLTVWGI, the IC50 turned out to be 215 nM with HLA-A*02:02 [1], 43.5 nM in the assay with HLA-A*02:03 [2] (setting [9]), 24.7 nM in the assay with HLA-A*02:06 [3] (setting [9]) and 645 nM in the assay with HLA-A*68:02 [4].

Take LTFGWCFKL: the IC50 worked out at 33.1 nM with HLA-A*02:02 [1], 206 nM in the assay with HLA-A*02:06 [3] (setting [9]) and 5.6 nM with HLA-A*68:02 [4]. Besides, in the assay with HLA-A*02:03 [8], the Kd is 4550 nM.

In the case of LTFGWCFKLV, the IC50 in the assay with HLA-A*02:02 [1] is 48.9 nM; with HLA-A*02:03 [2] (setting [9]), 185 nM; with HLA-A*68:02 [4], 6.2 nM.

As to LVGPTPVNI, the figures for the IC50 in the assay with HLA-A*02:02 [1], in the assay with HLA-A*02:03 [2] (setting [9]) and with HLA-A*68:02 [4] were 154 nM, 19.2 nM and 67.8 nM, respectively. In addition, in the assay with HLA-A*02:06 [5], the Kd worked out at 2850 nM.

As for MASDFNLPPV, the IC50 was determined as 22.6 nM with HLA-A*02:02 [1], 55.6 nM in the assay with HLA-A*02:03 [2] (setting [9]), 33.6 nM with HLA-A*02:06 [3] (setting [9]) and 18.2 nM in the assay with HLA-A*68:02 [4].

For the sequence MTNNPPIPV, the IC50 in the assay with HLA-A*02:03 [2] (setting [9]) turned out to be 33.3 nM; with HLA-A*68:02 [4], 12.1 nM. Also, the Kd came to 7170 nM with HLA-A*02:02 [6] (setting [9]) and 1610 nM with HLA-A*02:06 [5].

Consider RILQQLLFI, for which the IC50 is 125 nM in the assay with HLA-A*02:03 [2] (setting [9]) and 37 nM with HLA-A*02:06 [3] (setting [9]). In addition, the Kd with HLA-A*02:02 [6] (setting [9]) is 1540 nM; with HLA-A*68:02 [7] (setting [9]) it was 1820 nM.

Regarding SLLNATDIAV, the IC50 with HLA-A*02:03 [2] (setting [10]) stood at 238 nM; with HLA-A*02:06 [3] (setting [10]), 28.5 nM. The figures for the Kd with HLA-A*02:02 [6] (setting [10]) and with HLA-A*68:02 [7] (setting [10]) were 1300 nM and 5480 nM, respectively.

Consider VLAEAMSQV, for which the values for the IC50 with HLA-A*02:02 [1], in the assay with HLA-A*02:03 [2] (setting [9]) and with HLA-A*02:06 [3] (setting [9]) were 82.7 nM, 15.2 nM and 116 nM, respectively.
